{"source": "patent US11771766B2", "about": "“Drug delivery system containing phospholipid and cholesterol” (Taiwan Liposome Co., Ltd, priority 2009, dated 2023)", "key": {"[1]": {"experiment": "Gel filtration (Sepharose 4B) of drug/delivery vehicle mixtures: percentage of non-associated drug", "type": "physicochemical", "conditions": "mixed with DOPC/DOPG/cholesterol vehicle (weight ratio 8.8/1/1.6), 50 mM phosphate buffer pH 6.2", "protocol": "DOPC, DOPG, and cholesterol at a weight ratio of 8.8/1/1.6 were dissolved in chloroform, which was then evaporated under vacuum using a rotary evaporator. The dried mixture of the phospholipids and cholesterol thus produced was suspended in deionized water to form an aqueous suspension. The suspension is then homogenized via sonication using a cup horn sonicator (Misonix Sonicator 3000), sterilized by filtration, filled aseptically in a vial, and lyophilized to form a phospholipid-cholesterol-containing delivery vehicle. The phospholipid concentration in the vehicle was determined by a conventional phosphorus assay to ensure that the vehicle contained an appropriate total amount of the phospholipids.\nThe mixtures thus formed were diluted 18-100-fold in the same phosphate buffer and an aliquot of each mixture ([…]) was subjected to gel-filtration to determine the percentage of the therapeutic agent that was in non-associated form. Briefly, an aliquot of a mixture was loaded onto a Sepharose 4B column (diameter: 1.8 mm; length: 315 mm). The components in the mixture were then eluted by 50 mM phosphate buffer (pH 6.2). Fractions containing the therapeutic agent in different form, i.e., non-associated form or associated with the phospholipids, were collected, their absorbance being measured at 215 nm and 254 nm. The amount of the therapeutic agent in each fraction was determined based on the values of OD215 and OD254."}, "[2]": {"experiment": "Vitreous Avastin concentration after intravitreal injection, by ELISA (Examples 2-5)", "type": "in vivo, New Zealand White rabbits", "conditions": "Avastin dose 1.25 mg per eye", "protocol": "The effect of the delivery vehicles mentioned above in prolonging the lifetime of Avastin in eyes was examined following the method described in Bakri et al., Ophthalmology, 2007, 114:5, 855-859. Briefly, New Zealand White rabbits were sedated by intramuscular injection of a mixture containing Zoletil (15 mg/ml) and Rompun (7 mg/ml). Both eyes of each rabbit were injected intravitreally with 50 μl of Avastin (25 mg/ml) or one of the aqueous suspensions mentioned above (at an Avastin dose of 1.25 mg per eye) using a 30-gauge needle. Rabbits were sacrificed at 7 days or 21 days after injection and their eyes were promptly enucleated. The vitreous humor was isolated from each eye together with retina and Avastin concentration was determined by ELISA as follows.\nA F96 MaxiSorp™ NUNC-IMMUNO plate was coated with VEGF (10 μg/ml in PBS, pH 7.4; 100 μl/well) at 4° C. overnight. The VEGF-coated plate was washed with PBS and then blocked with a blocking buffer (5% skim milk in PBS) at room temperature for 1 hour. […] The absorbance at 450 nm (OD450) of each well was determined by an ELISA reader. Various pre-determined Avastin concentrations (3.125-25 ng/ml) were used to establish a standard Avastin concentration/OD450 curve. The Avastin concentration in each sample was determined based on its OD450 value in view of the standard curve. […]"}, "[3]": {"experiment": "Pharmacokinetic properties of vitreous Avastin after intravitreal injection (Example 6)", "type": "in vivo, Rabbits", "protocol": "Rabbits were injected intravitreally with either Avastin alone (control rabbits) or Avastin mixed with a delivery vehicle containing DOPC/Cholesterol/DOPG at a ratio 67.5/25/7.5 (test rabbits). Vitreous Avastin concentrations of the control rabbits were examined by ELISA at days 7, 21, and 28 post injection and those of the test rabbits were examined at days 7, 21, 28, 35, 41, and 49 post injection.\nIn a similar study, the vitreous Avastin concentrations were monitored 7, 28, 49, 70, 91 and 112 days post intravitreal injection."}}, "data": [{"molecule": "bovine serum albumin", "values": [{"measurement": "Percentage of Non-Associated Drug (% ± S.D.)", "setting": "[1]", "value": "87.2 ± 0.4", "unit": "%"}]}, {"molecule": "N[C@@H](Cc1ccc(O)cc1)C(=O)O", "note": "[Tyrosine, tyrosine]", "values": [{"measurement": "Percentage of Non-Associated Drug (% ± S.D.)", "setting": "[1]", "value": "80.3 ± 0.1", "unit": "%"}]}, {"molecule": "HWRGWVC [HWRGWVC (SEQ ID NO: 2) peptide]", "values": [{"measurement": "Percentage of Non-Associated Drug (% ± S.D.)", "setting": "[1]", "value": "52.4 ± 0.2", "unit": "%"}]}, {"molecule": "N[C@@H](Cc1c[nH]c2ccccc12)C(=O)O", "note": "[Tryptophan, tryptophan]", "values": [{"measurement": "Percentage of Non-Associated Drug (% ± S.D.)", "setting": "[1]", "value": "86.1 ± 0.8", "unit": "%"}]}, {"molecule": "Avastin: an antibody specific to vascular endothelial growth factor", "values": [{"measurement": "Percentage of Non-Associated Drug (% ± S.D.)", "setting": "[1]", "value": "62.1 ± 0.9", "unit": "%"}, {"measurement": "Avastin Concentration", "setting": "[2]; vitreous humor with retina, seven days after intravitreal injection", "value": "247 ± 27", "unit": "µg/mL"}, {"measurement": "Avastin Concentration", "setting": "[2]; vitreous, 21 days after intravitreal injection", "value": "37 ± 7", "unit": "µg/mL"}, {"measurement": "vitreous Avastin concentration", "setting": "[3]; 28 days after intravitreal injection", "value": 13, "unit": "µg/mL"}, {"measurement": "t1/2 (half-life of intravitreal Avastin)", "setting": "[3]; control rabbits, vitreous", "value": 93.6, "unit": "h"}, {"measurement": "vitreous concentration of Avastin over time (in words, FIG. 1)", "setting": "[3]; days 7 to 49 after intravitreal injection", "value": "decreased much rapidly over time"}, {"measurement": "AUC(7-∞)", "setting": "[3]; vitreous, from the 7th day to infinity", "value": 3294, "unit": "µg·days/mL"}, {"measurement": "AUC(7-112)", "setting": "[3]; vitreous, from the 7th day to the 112th day", "value": 3294, "unit": "µg·days/mL"}, {"measurement": "AUC(112-∞)", "setting": "[3]; vitreous, from the 112th day to infinity", "value": 0, "unit": "µg·days/mL"}]}, {"molecule": "HFRRHLC [HFRRHLC (SEQ ID NO: 1) peptide]", "values": [{"measurement": "Percentage of Non-Associated Drug (% ± S.D.)", "setting": "[1]", "value": "71.9 ± 0.2", "unit": "%"}]}, {"molecule": "C[C@@H]1C[C@H]2[C@@H]3CCC4=CC(=O)C=C[C@]4(C)[C@@]3(F)[C@@H](O)C[C@]2(C)[C@@]1(O)C(=O)COP(=O)(O)O", "note": "[Dexamethasone sodium phosphate, dexamethasone sodium phosphate]", "values": [{"measurement": "Percentage of Non-Associated Drug (% ± S.D.)", "setting": "[1]", "value": "68.5 ± 0.5", "unit": "%"}]}]}
